Laboratory results reported in PMC3093654.

Biological target: alpha-thrombin (UniProt P00734;P00734 328-363;364-622)
Assay: SPR imaging

Binder: AGTCCGTGGTAGGGCAGGTTGGGGTGACTTTTTTTTTTTTTTTT (ssDNA, 3'-NH2, surface-attached to pGlu-MUAM on gold) [Da thrombin aptamer]
- binding result: binds
